Reference: a protein production outcome set (Wang et al. 2014)

Assay: label from the status in PepcDB records
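Also: failed if final PepcDB status was selected cloned or expressed and not failed if soluble or beyond.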

MFRWERSIPLRGSAAALCNNLSVLQLPARNLTYFGVVHGPSAQLLSAAPEGVPLAQRQLHAKEGAGVSPPLITQVHWCVLPFRVLLVLTSHRGIQMYESNGYTMVYWHALDSGDASPVQAVFARGIAASGHFICVGTWSGRVLVFDIPAKGPNIVLSEELAGHQMPITDIATEPAQGQDCVADMVTADDSGLLCVWRSGPEFTLLTRIPGFGVPCPSVQLWQGIIAAGYGNGQVHLYEATTGNLHVQINAHARAICALDLASEVGKLLSAGEDTFVHIWKLSRNPESGYIEVEHCHGECVADTQLCGARFCDSSGNSFAVTGYDLAEIRRFSSV
protein production: failed

MFSFNMFDHPIPRVFQNRFSTQYRCFSVSMLAGPNDRSDVEKGGKIIMPPSALDQLSRLNITYPMLFKLTNKNSDRMTHCGVLEFVADEGICYLPHWMMQNLLLEEGGLVQVESVNLQVATYSKFQPQSPDFLDITNPKAVLENALRNFACLTTGDVIAINYNEKIYELRVMETKPDKAVSIIECDMNVDFDAPLGYKEPERQVQHEESTEGEADHSGYAGELGFRAFSGSGNRLDGKKKGVEPSPSPIKPGDIKRGIPNYEFKLGKITFIRNSRPLVKKVEEDEAGGRFVAFSGEGQSLRKKGRKP
protein production: not failed

MFSLNTLLNPPDNLSVGEIILISLILGMLHGVTPDEHTWPITFSYAIGKYSTKGGMKAGFLFSLGFTIQRAFLTTIGFLGLAAIYNQYNLDGPVYAVVGIVMAIAGSYILKGKYIHLPIDALFKSKQHTEEAGKVKDIPIKMTIVHGLVAGFGFGAYATIITFVLAPQLPSVVYAPLPGLFFGLGTMVMQIIFGMIFGNILRLKKMTEEQLSFIARKTAGRVLYYGGLVFLIVGLLIIVLPAIDNFAISTGNPIPNLDAINIGFLLVISVVGVIGISSILYGFREAKRLAKHI
protein production: failed

MFSPDSPISEFVSISTHVAPSVVKTTAGDYLLIWHLGGLPFVGRDEFELEQRHNTFNRLLQTLRAPDFANVAFWVHDVRRRRRIGAGGRFKQAFNQTLSDEYYTALSSQKIMQNELYFSMIYRPVVTGRRLVEKSANPDKIRAEEEQAVAKVVELATNVEAVLKDYAPYRLGMYEAKNGLVFSETLEFLGYLLNRIDEPVPVLPAPVPAYLPVSKHMFANKTGDFVIRTPDGINHFGAILNIKEYADGTYPGILNGLKYLDSEYVMTHSFSPVGRHDALKVLERTKGMMVSSGDKSSTQIRDLDVAMDDVASGNFVLGEYHFTLAVYADSQEKLARQIATTRAELSNAGFVSAKEDLAIASSFYSQLPGNWRFRTRIANLSSLNFLGLSPLHNFAQGKQHNNPWGDCVTTLQTTNGQPYYFNFHATHPSENSLGEKAIGNTMVIGKSGTGKTALINFLLSQVQKFDPIPTIFFFDKDRGAEIFVRACGGNYLALENGSPTGFNPFQCERNEANTQFLAELIKVLGGKAEYSAREEEDIYRAVEGMLDTPMHLRSMSNFRKSLPNMGDDGLYARLRRWTAGNSLGWVFDNPVDTIDLTRASIIGFDYTDVIDNAEVRVPVINYLLHRLEALIDGRPLIYVMDEFWKILDGKGGLKEFAKNKQKTIRKQNGLGIFATQSPEDALASDIAAALIEQTATMILLPNPNASRDDYMEGLKLTDAEYQVVVSLDERSRCFLVKQGHASAVCQLNLRGMDDALSVISSSTDNIEIMHQILAGKAGKLGVTVDQLTPEQWLEHHHHHH
protein production: failed

MFTALLFTLGIAAATSFNASAIDNHNNKNKLPDIGISGYSVLSTDKELQIGKAMMRQLRASQPLIQDPVLIEYINHLGNSLVKNAQGVNYAFEFFLINNNELNAFAFFGGHVGIHSGLITTADTESELASVIAHEISHVTQRHLARRLESQSQTQGLTMAAMLSSVLITLVNPTVGIAALSASMAVTQQASINYTRGNEKEADRVGIALLASSNYDPQGAASFFSKMSTKYRYASKPPAMLLTHPLPESRIADARQRALNYPARPLPPSLGFELTKARLKSRYQGEAKSNISFFKLQLEKKRYAIKAAAQYGLALSYFENKQTSEALQLLEMLEKNDKDNLFYVDALTDVYIANNQANKAIKMLERLNLFMPNNQVVSLNYANALLSVKEYDLAAQILQDFLLVNPGNFIAYDILTTLYRTQEKTGLMHMSKAEVYALLGAYPKAVDELQTSYAFLDEQPLMQKRVKARILQLQEQENRLKRL
protein production: failed

MFTFGFTNPEGTPDFSTPGLICIAILYIVGIYINFVFTIRRLHDRNNTGWLSLLMLVPVVNIGLAIYLFCAKGTEGPNDYGPKRPTPSWERVLGWIYIALIPLALIFGVIAVIMAPTYEGYVEKSESIVIGSPSQSE
protein production: failed

MFTFLMTVRTSRRVAFHSGKLPVVIGIVSFFAPLFSLSFLNLFTDNIDPHYMSLDKALAERTVIVITQSQILLPSTTYILLELKIINSELGRLALSASAINDMLGIFAMIVATTQATYIHVSHAIAYRDLVAVIIFFLIVFFVFKPMVQWIIDRTPEDKPVEDIYIHAVILTAFASAAYFVFFNMKYVLGPLIIGIIIPEGPPLGSALEAKFERLTMNVFLPISITFSAMRCDGLRILSQFTDIYFNIFLTLLILVIKLVACLTLCLYYKLPRSESLAVSLILSYKSFVEFVLYEAVLEEKFISQATYAFLILYSLLSAGIVPMVVRSMYDPKRKYVNYQKRDILHLEANSGLRILTCLHKPENVSETIAFLQLFSSPIHDFPIAVTVLHLVKLVGQINPIIVSHDKKLKRLHKNSYIHTANLAFRQFMQESLESVTVTTFTAFSHENLMHEDICTLALDRTTSMIVVPSGRKWTVDGMFESDDLAARQLNQSLLDRAPCSIGILVDRGQFSRKSYVTSKNRYNIDVGVLFIGGKDDREALSLVKRMKYNPRVRVTVIRLIFDHEIESEWDYILDNEGLKDLKSTESNEDILYTERIVTSVVEVVKAVQLLAEEYDLMVVGRDHDMTSQDLSGLTEWVELPELGVIGDLLAARDLNSKVSVLVVQQQQQQT
protein production: failed

MFTQRKKWLSGVAAGLLMAASVSASAEEKILHIYNWSDYIAPDTLANFQKETGIKVVYDVFDSNEVLEGKLMAGSTGFDLVVPSASFLERQLSAGVFKPLDKSKLPNEKNLDPELLALVSKHDPDNKYAIPYLWATTGIGYNVEKVKAVLGEDAPVNSWDLVLKPENLEKLKSCGVSFLDAPSEIFATVLNYLGKDPNSTLTADYTGSATDLLLKLRPNIRYFHSSQYINDLANGDICVAVGWAGDIMQASNRAKEAKNGVNVAYSIPKEGALAFFDVFAMPTDAKNQDEAYQFLNYLMRPDVIANISNHVFYANANQAATPLVNAEVRDNPGIYPPADVRAKMFTLKVQDPKIDRVITRAWTKVKSGK
protein production: failed

MFTTVITPRVSETDGVGHINNTTVPVWFEAGRHEIFKLFTPDLSFKRWRMVIIRMEVDYVNQMYYGQDVTVYTGIERIGNTSLTIYEEIHQNGVVCAKGRSVYVNFNFDTGRPEPIPDDIRVKLREHVWQPGE
protein production: not failed

MFVEVFIVGLLAGMSPGPDFFIVMKNSLGFGARVGILTSLGIASALIVHITYTVLGFAFLIETYPALFFTIQLLGAAYLIWLGFHAIRSSPPKKEEAEIEETQPIQSTKDSKSSIQGFKEGFITNLLNPKAALFFLSIFSQFITPQTADWVRWMYGLEVVVAVGLWFSFLAIFISYKHFRRFYQTHSYWFDRFLGAALLFFAIRIIIGAF
protein production: failed

MFVRRFEEVLALPTAMTALLGCQLLGELIVRALHLPIPGPVLGLLLLLAWLLLGTTVTLPVSSSLPEVARGLLNHMSLLFIPAGVGIILHGQTLADQWLPISVSLFGSTALALIATALTFRAVCKIMERSKAKKEGGR
protein production: failed

MFVYAYILMLLLTVLMCINLFIDSFKCPVKIRRILRGLVFLIMLRYVTLLIMCLKKSITYIYFMRPIVLLDILYIPLVILIMIFVFTRSAKFNFVYAAISGIIFFSLYIFLNFKILKTANPFYSYSFGYLIDLKSYSVVVAVVKVMVLILMLMLCGYFLRKSNIRRAGFCFLMIVILVMLVENISIIIMPKVMPEYLFGEVLLLICLNYMVRLFKK
protein production: failed

MFYGRYDYPTGKFLWGNLRYQRVSEYNLQTFLNMKNSKLREEQIMSAKRDYYEVLGVSRDADKNTIKKAYRKLAKKYHPDTNQGNAQAAERFKEATEAYNILSDPEKKKMYDQFGHAAFDGSGAAGGAYGGAYSRNGGGTYQYAGPDGTFHEYHFEGNGDMDDFLKNIFGGSFGGFGGATRSSSKGSRSGFSGSGFGRSGFGGTGFSGSGFGGSGFSGSGFGESGSYGNYSQGGADVTAEITVGFDEAAFGCEKVIHLTENNGKAVGKALKVKIPAGIDTGKSIRLRGKGNPGINGGKAGDLLLKVKVASKPGYERKGMDVYTTVRVPFTTAVLGGEAKVETLHGNVLCKINPGTQSGTKIRLRGKGIVSMKDKNQHGDQYVTVQIDVPGNLSEEAKRKLREFEVACKKGQQGVA
protein production: failed

MFYKEENFKKTEIGEIPEDWEIVELKDVCKKIKAGGTPKTSVEEYYKNGTIPFVKIEDITNSNKYLTNTKIKITEEGLNNSNAWIVPKNSVLFAMYGSIGETAINKIEVATNQAILGIIPKDNILESEFLYYILAKNKNYYSKLGMQTTQKNLNAQIVKSFKIPLPPLEEQKQIAKILTKIDEGIEIIEKSINKLERIKKGLMHKLLTKGIGHSRFKKSEIGEIPEDWEVFEIKDIFEVKTGTTPSTKKSEYWENGEINWITPLDLSRLNEKIYIGSSERKVTKIALEKCNLNLIPKGSIIISTRAPVGYVAVLTVESTFNQGCKGLFQKNNDSVNTEFYAYYLKFKKNLLENLSGGSTFKELSKSMLENFKIPLPPLEEQKQIAKILSSVDKSIELKKQKKEKLQRMKKKIMELLLTGKVRVKT
protein production: not failed

MFYTIEELVQQADRDYQGNIAELMIATETELSGRDRSEILELMTRNLEVMKDSVQTGLSPEKSPTGLTGGDAAKLDAYIKRGKTLADSAVLGAARNAMAVNESNAKMGLVCATPTAGSAGCLPAVLTVAIEKLGLNESQQLDFLFTAGAFGLVIANKASISGAEGGCQAEVGSASAMAAAAITMAAGGTPFQASQAICFVLKNMLGLICDPVAGLVEVPCVKRNAMGASFALVAADMALAGITSAIPVDQVVDAMYQVGSAMPTAFRETAEGGLAATPKGKALAKEIFG
protein production: not failed

MGAASCEDEELEFKLVFGEEKEAPPLGAGGLGEELDSEDAPPCCRLALGEPPPYGAAPIGIPRPPPPRPGMHSPPPRPAPSPGTWESQPARSVRLGGPGGGAGGAGGGRVLECPSIRITSISPTPEPPAALEDNPDAWGDGSPRDYPPPEGFGGYREAGAQGGGAFFSPSPGSSSLSSWSFFSDASDEAALYAACDEVESELNEAASRFGLGSPLPSPRASPRPWTPEDPWSLYGPSPGGRGPEDSWLLLSAPGPTPASPRPASPCGKRRYSSSGTPSSASPALSRRGSLGEEGSEPPPPPPLPLARDPGSPGPFDYVGAPPAESIPQKTRRTSSEQAVALPRSEEPASCNGKLPLGAEESVAPPGGSRKEVAGMDYLAVPSPLAWSKARIGGHSPIFRTSALPPLDWPLPSQYEQLELRIEVQPRAHHRAHYETEGSRGAVKAAPGGHPVVKLLGYSEKPLTLQMFIGTADERNLRPHAFYQVHRITGKMVATASYEAVVSGTKVLEMTLLPENNMAANIDCAGILKLRNSDIELRKGETDIGRKNTRVRLVFRVHVPQGGGKVVSVQAASVPIECSQRSAQELPQVEAYSPSACSVRGGEELVLTGSNFLPDSKVVFIERGPDGKLQWEEEATVNRLQSNEVTLTLTVPEYSNKRVSRPVQVYFYVSNGRRKRSPTQSFRFLPVICKEEPLPDSSLRGFPSASATPFGTDMDFSPPRPPYPSYPHEDPACETPYLSEGFGYGMPPLYPQTGPPPSYRPGLRMFPETRGTT
protein production: not failed

MGAATRVAPMTAAASSTKAWLMAARPQTLPAGAAPVIVGTGLAVYHGVFAPLPALFALFGALLLQIGTNFANDYYDAVRGADTEDRDGFTRVTAGGLIEPAAVKRAMYATFGLSMVIGLYLVAVGGVPILVVGLASIVAGITYSGGPLPYGYRGLGDLFVFVFFGLVAVAGTYYVQAAAHGGWFPLWIPEGTLPAAAVVAGLPAAGFSTAILVVNNIRDRETDAEAGKHTLAVILGYRLSRIEWSLMAGLGYAIPVVFWLDGYPATVLLPLVTAPLAIAIGRTVWNRTDGEALNPALQRTGKLLFAHSVCFALGFAAPAVI
protein production: failed
